In US20190023766A1 (published 2019):

B1: in vitro assembled IL-15N72D:IL-15RαSu/Fc complex (IL-15N72D:IL-15RαSu/Fc IVA) (Fc fusion)
chain 1: PEAAGG
chain 2: PELLGG
B2: IL-15N72D:IL-15RαSu/Fc complex (Alt-803), co-expressed and purified (Fc fusion)
chain 1: PEAAGG
chain 2: PELLGG

Columns and labels:
[1] = biological target: OVA (aa257-264) peptide/H-2Kb complex, soluble (HRP tetramer or biotinylated complex on a streptavidin chip) (mouse) (UniProt P01901); assay: SPR (BIAcore 2000), biotinylated pMHCI on streptavidin chip, apparent KD
[2] = biological target: OVA (aa257-264) peptide/H-2Kb complex, soluble (HRP tetramer or biotinylated complex on a streptavidin chip) (mouse) (UniProt P01901); assay: SPR (BIAcore 2000), biotinylated pMHCI on streptavidin chip
[3] = biological target: IL-15Rβγc receptors on 32Dβ cells (hIL-15Rβ and murine γC chains) (human; mouse) (UniProt P14784); assay: cell-based or functional assay
[4] = biological target: T1, IL-15Rβγc receptors on 32Dβ cells (hIL-15Rβ and murine γC chains) (human; mouse, UniProt P14784 27-551; P34902 23-369); assay: cell-based or functional assay
T1 sequence (looked up) 1: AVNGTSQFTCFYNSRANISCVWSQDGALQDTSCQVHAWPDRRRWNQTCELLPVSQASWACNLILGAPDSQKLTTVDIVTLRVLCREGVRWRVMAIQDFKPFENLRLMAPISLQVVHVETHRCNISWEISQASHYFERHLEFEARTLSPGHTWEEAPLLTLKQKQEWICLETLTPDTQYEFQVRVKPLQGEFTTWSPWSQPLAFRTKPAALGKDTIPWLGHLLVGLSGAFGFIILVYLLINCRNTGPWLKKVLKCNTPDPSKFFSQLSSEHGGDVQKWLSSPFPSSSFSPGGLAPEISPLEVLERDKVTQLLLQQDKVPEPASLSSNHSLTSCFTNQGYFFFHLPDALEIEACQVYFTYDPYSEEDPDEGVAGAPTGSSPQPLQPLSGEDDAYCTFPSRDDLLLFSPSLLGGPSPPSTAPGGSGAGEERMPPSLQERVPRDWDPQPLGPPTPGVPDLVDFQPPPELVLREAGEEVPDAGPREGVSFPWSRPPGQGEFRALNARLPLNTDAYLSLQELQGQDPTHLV
T1 sequence (looked up) 2: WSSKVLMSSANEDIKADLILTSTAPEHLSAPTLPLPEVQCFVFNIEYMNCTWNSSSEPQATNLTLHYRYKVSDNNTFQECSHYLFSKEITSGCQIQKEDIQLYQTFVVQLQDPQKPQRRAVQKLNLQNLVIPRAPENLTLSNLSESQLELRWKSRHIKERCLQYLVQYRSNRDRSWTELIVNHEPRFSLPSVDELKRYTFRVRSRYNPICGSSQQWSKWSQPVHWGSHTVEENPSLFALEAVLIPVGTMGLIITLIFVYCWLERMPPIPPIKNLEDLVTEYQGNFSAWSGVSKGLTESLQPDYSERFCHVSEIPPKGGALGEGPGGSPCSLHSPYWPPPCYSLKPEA

Sequence of OVA (aa257-264) peptide/H-2Kb complex, soluble (HRP tetramer or biotinylated complex on a streptavidin chip) (mouse) (P01901 22-305, one chain of several): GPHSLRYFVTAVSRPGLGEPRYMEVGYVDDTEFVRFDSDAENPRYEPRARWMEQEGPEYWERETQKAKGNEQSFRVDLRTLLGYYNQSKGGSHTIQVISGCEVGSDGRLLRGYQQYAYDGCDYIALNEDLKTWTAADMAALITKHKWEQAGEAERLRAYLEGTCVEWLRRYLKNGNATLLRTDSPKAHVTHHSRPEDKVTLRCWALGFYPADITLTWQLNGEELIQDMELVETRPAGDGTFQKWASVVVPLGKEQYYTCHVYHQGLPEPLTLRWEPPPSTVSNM

Molecule	EC50, 32Dβ cell proliferation [3] [nM]	EC50, 32Dβ cell proliferation [4] [nM]	further results
OT1scTCR dimer (OT1scTCR/hIL-15:OT1scTCR/hIL-15RαSu/birA complex) (from UniProt P40933 49-162)			Kd [1]: 30000 nM
OT1scTCR/scCD8 heterodimer (OT1scTCR/hIL-15:scCD8/hIL-15RαSu/birA complex) (from UniProt P40933 49-162; P01731 28-196; P10300 22-175)			Kd [2]: 2600 nM
c264scTCR dimer (c264scTCR/hIL-15:c264scTCR/hIL-15RαSu/birA complex) (from UniProt P40933 49-162)	0.3		
c264scTCR/hIL-15 fusion protein (from UniProt P40933 49-162)	0.3		
B1		0.0158	
B2		0.0156	
